B1: batCOV5-MCTD-sfGFP, carboxy-terminal domain of batCOV5-M between the two halves of a split superfold (domain or fragment)
chain: ESNCLLNVPIGGTTVVRPLVEDSTSVTAVVTDGYLKMAGMHFGACDFQRLPSEVTVAKPNVLIALKMIKRQAYGTNSGVAIYHRYKAGN
B2: batCOV5-M, M protein of Pipistrellus bat coronavirus HKU5, affinity- and SEC-purified (cross-linking, MST) (natural protein)
chain: MASSNVTLSNDEVLRLVKDWNFTWSVVFLLITIVLQYGYPSRSMFVYVIKMFVLWLLWPASMALSIFCAVYPIDLASQIISGILAATSCAMWISYFVQSIRLFMRTGSWWSFNPESNCLLNVPIGGTTVVRPLVEDSTSVTAVVTDGYLKMAGMHFGACDFQRLPSEVTVAKPNVLIALKMIKRQAYGTNSGVAIYHRYKAGNYRRPPIIQDQELALLRA

Legend:
[1] = target: the molecule itself; assay: crystal structure
[2] = target: the molecule itself; assay: cross-linking

Protein | stoichiometry N [1] | stoichiometry N [2]
B1 | 4 | –
B2 | – | ≥ 2
